Values of other authors as cited in article PMC5671728.
“And” between values parts separate entries of the source, which are not always exact repeats. Identical values can stand only once.

What was measured:
[1] = target: Insulin receptor isoform A (Homo sapiens) (UniProt P06213)
[2] = target: Insulin receptor isoform B (Homo sapiens) (UniProt P06213)

Insulin, sequence (P01308 90-110): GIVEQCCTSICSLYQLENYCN

Kd [1]: 0.91 nM and 2.1 nM
Kd [2]: 1.8 nM and 1.56 nM
Substance: Insulin (from UniProt P01308)
